{
  "source": "patent US20210393713A1",
  "target": "Twin-Strep-tagged LY6A, C57BL/6J variant (GPI-anchor truncated, soluble) (mouse (C57BL/6J)) (UniProt P05533)",
  "sequence (P05533 27-111, stated change not applied)": "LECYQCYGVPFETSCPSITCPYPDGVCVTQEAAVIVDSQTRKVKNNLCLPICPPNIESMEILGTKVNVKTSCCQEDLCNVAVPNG",
  "assay": "ELISA, AAV particles on plate-bound Twin-Strep-tagged LY6A; apparent Kd from a 1:1 fit",
  "data": [
    {"substance": "AAV-PHP.B capsid (AAV9 variant with the TLAVPFK insert)", "values": [
      {"measurement": "Kd", "result": 0.07, "unit": "nM"}
    ]}
  ]
}
